Assay results reported in patent US20030008808.

Test system: 30S ribosomal subunit (activated, mRNA-programmed; ribonucleoprotein)
Assay: filter
Conditions: CMN buffer

human ASLLys3(SUU)
Kd (s2U at position 34, poly(A)-programmed, also bound poly(AG)-programmed, 20 mM MgCl2): 176 nM

native E. coli tRNALys(SUU)
Kd (native modifications incl. mnm5s2U34, poly(A)-programmed, 20 mM MgCl2, 100 mM NH4Cl, pH 7.2, 37 C then ice): 70 nM

native yeast tRNAPhe(GmAA)
Kd (native modifications incl. Gm34, poly(U)-programmed, 20 mM MgCl2): 103 nM

yeast ASLPhe(GAA)
Kd (poly(U)-programmed, 20 mM MgCl2): 136 nM
